Consider two substances from IntAct's records for PubMed 30487161.

The test deals with egln1_human EGLN1 (UniProt Q9GZT9).
egln1_human EGLN1, sequence (Q9GZT9 whole entry, looked up): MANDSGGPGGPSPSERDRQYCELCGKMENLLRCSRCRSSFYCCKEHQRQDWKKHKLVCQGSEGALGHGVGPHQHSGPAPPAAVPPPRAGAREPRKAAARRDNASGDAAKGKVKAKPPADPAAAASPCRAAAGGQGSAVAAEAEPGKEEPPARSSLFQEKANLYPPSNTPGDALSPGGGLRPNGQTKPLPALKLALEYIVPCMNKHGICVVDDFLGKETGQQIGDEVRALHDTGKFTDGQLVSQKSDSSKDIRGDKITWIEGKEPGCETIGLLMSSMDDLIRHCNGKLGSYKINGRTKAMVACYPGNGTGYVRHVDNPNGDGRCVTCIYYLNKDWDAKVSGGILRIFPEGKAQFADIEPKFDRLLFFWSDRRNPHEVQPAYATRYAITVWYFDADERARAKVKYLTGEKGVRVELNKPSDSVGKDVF

Endothelial PAS domain-containing protein 1 (Homo sapiens), Q99814 N203H, sequence (Q99814 whole entry N203H, the tested form may be a part): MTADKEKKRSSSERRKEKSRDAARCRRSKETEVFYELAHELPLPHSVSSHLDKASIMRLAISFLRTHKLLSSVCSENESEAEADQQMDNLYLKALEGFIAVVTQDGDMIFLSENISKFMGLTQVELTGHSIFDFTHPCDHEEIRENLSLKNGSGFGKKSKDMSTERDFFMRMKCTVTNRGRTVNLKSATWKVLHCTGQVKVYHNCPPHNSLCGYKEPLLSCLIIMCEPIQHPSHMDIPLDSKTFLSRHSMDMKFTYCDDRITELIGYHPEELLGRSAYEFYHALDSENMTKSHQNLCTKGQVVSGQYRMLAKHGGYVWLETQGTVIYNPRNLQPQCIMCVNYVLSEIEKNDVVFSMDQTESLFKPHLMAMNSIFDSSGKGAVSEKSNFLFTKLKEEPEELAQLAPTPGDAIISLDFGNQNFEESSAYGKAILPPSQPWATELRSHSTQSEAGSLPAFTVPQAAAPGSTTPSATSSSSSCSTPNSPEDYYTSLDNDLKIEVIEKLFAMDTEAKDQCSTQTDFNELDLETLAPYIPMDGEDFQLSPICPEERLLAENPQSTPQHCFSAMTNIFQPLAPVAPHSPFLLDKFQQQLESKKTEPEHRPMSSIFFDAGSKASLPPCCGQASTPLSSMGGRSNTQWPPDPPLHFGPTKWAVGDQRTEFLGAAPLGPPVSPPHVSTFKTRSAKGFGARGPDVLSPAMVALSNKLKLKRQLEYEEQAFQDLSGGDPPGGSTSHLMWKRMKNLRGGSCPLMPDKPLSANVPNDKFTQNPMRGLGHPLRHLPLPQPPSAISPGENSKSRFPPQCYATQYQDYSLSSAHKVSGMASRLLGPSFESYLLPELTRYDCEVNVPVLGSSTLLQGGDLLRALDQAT
Endothelial PAS domain-containing protein 1 (Homo sapiens), Q99814 G724W, sequence (Q99814 whole entry G724W, the tested form may be a part): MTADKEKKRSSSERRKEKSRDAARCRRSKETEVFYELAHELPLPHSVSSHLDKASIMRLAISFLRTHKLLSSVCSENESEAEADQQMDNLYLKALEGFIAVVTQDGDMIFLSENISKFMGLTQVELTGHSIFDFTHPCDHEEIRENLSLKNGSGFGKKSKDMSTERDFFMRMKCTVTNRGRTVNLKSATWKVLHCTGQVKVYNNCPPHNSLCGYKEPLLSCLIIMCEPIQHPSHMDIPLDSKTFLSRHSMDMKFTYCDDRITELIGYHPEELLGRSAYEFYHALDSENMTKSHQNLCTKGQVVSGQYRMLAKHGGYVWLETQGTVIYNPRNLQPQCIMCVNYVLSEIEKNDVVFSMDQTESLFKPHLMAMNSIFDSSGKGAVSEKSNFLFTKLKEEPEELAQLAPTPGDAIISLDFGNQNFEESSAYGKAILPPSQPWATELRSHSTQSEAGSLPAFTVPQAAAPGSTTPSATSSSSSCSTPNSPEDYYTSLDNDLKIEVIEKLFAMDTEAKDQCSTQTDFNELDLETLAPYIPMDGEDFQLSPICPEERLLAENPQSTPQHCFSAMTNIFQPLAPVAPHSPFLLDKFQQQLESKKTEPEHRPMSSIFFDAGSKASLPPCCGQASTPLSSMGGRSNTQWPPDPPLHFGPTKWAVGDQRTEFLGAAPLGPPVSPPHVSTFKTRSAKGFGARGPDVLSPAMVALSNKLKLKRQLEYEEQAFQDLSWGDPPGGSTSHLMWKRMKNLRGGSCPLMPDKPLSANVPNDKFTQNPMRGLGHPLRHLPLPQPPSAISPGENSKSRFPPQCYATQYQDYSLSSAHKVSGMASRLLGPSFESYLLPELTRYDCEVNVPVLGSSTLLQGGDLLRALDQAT

With “Endothelial PAS domain-containing protein 1 (Homo sapiens), Q99814 N203H”, the “effect of a mutation on the interaction” value was “increasing interaction strength”.
Under “Endothelial PAS domain-containing protein 1 (Homo sapiens), Q99814 G724W” stands “with no effect”.
